The values that follow come from patent US20180155451A1 (published 2018).

Changes are numbered by the printed parent chain.

Sequences and labels used below:
B1: GpH7-A5/GpH7-B3 variant G236_02A/GpL16-k0 (antibody, human IgG1, kappa)
heavy 1: not shown
heavy 2: not shown
light: DIVMTQSPLSLPVTPGEPASISCQASESLVHSNRNTYLHWYLQKPGQSPQLLIYKVSNRFSGVPDRFSGSGSGTDFTLKISRVEAEDVGVYYCSQNTHVPPTFGQGTKVEIERTVAAPSVFIFPPSDEQLKSGTASVVCLLNNFYPREAKVQWKVDNALQSGNSQESVTEQDSKDSTYSLSSTLTLSKADYEKHKVYACEVTHQGLSSPVTKSFNRGEC
notes: Heterodimerized IgG1, mutation in the GpH7-B3 chain only; also called He Ab
B2: GpH7-A5/GpH7-B3 variant L235_12R/GpL16-k0 (antibody, human IgG1, kappa)
heavy 1: not shown
heavy 2: not shown
light: B1 light
notes: as for B1
B3: GpH7-A5/GpH7-B3 variant G236_05P/GpL16-k0 (antibody, human IgG1, kappa)
heavy 1: not shown
heavy 2: not shown
light: B1 light
notes: as for B1
B4: GpH7-A5/GpH7-B3 variant G236_03V/GpL16-k0 (antibody, human IgG1, kappa)
heavy 1: not shown
heavy 2: not shown
light: B1 light
notes: as for B1
B5: GpH7-A5/GpH7-B3 variant D265_02A/GpL16-k0 (antibody, human IgG1, kappa)
heavy 1: not shown
heavy 2: not shown
light: B1 light
notes: as for B1
B6: GpH7-A5/GpH7-B3 variant G236_04F/GpL16-k0 (antibody, human IgG1, kappa)
heavy 1: not shown
heavy 2: not shown
light: B1 light
notes: as for B1
B7: GpH7-A5/GpH7-B3 variant D265_03V/GpL16-k0 (antibody, human IgG1, kappa)
heavy 1: not shown
heavy 2: not shown
light: B1 light
notes: as for B1
B8: GpH7-A5/GpH7-B3 variant L235_13S/GpL16-k0 (antibody, human IgG1, kappa)
heavy 1: not shown
heavy 2: not shown
light: B1 light
notes: He Ab: alteration in the GpH7-B3 H chain only; also called He Ab
B9: GpH7-A5/GpH7-B3 variant L235_19Q/GpL16-k0 (antibody, human IgG1, kappa)
heavy 1: not shown
heavy 2: not shown
light: B1 light
notes: as for B8
B10: GpH7-A5/GpH7-B3 variant L235_16H/GpL16-k0 (antibody, human IgG1, kappa)
heavy 1: not shown
heavy 2: not shown
light: B1 light
notes: as for B8
B11: GpH7-A5/GpH7-B3 variant P238_01G/GpL16-k0 (antibody, human IgG1, kappa)
heavy 1: not shown
heavy 2: not shown
light: B1 light
notes: as for B8
B12: GpH7-A5/GpH7-B3 variant L235_18N/GpL16-k0 (antibody, human IgG1, kappa)
heavy 1: not shown
heavy 2: not shown
light: B1 light
notes: as for B8
B13: GpH7-A5/GpH7-B3 variant L235_14T/GpL16-k0 (antibody, human IgG1, kappa)
heavy 1: not shown
heavy 2: not shown
light: B1 light
notes: as for B8
B14: GpH7-A5/GpH7-B3 variant P238_02A/GpL16-k0 (antibody, human IgG1, kappa)
heavy 1: not shown
heavy 2: not shown
light: B1 light
notes: as for B8

The first test has as its target T1, FcγRIIa H (human, UniProt P12318 34-217).
T1 construct: extracellular domain; also called FcgRIIa H; FcγRIIa type H; not shown: His tag attached to the C terminus
T1 sequence (looked up): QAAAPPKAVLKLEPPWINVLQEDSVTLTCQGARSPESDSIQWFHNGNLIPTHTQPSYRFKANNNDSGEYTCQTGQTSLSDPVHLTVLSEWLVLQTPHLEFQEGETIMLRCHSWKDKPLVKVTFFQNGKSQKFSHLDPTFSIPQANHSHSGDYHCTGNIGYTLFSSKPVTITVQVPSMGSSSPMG
Nature of the test: ratio of He/Con_2aH to He/Con_2b (relative SPR binding to FcγRIIa H over FcγRIIb). (In general: Surface plasmon resonance follows binding to a sensor surface in real time, without labels.)
Consider B1, for which the “He_2aH/2b (IIaH/IIb)” value turned out to be 1.44.
On to B2, for which the “He_2aH/2b (IIaH/IIb)” value came out at 3.16.
The same measure, in the same setting: the value for B3 was 3.34; that for B4 was 3.39; that for B5 was 1.58.
Still for that read-out and setting: the value for B6 was 3.
Regarding B7, the “He_2aH/2b (IIaH/IIb)” value amounted to 1.42.

The next test addresses T1, FcγRIIa H. Nature of the test: SPR (Biacore), antibody captured, FcγR as analyte; binding relative to GpH7-A5/GpH7-B3/GpL16-k0 = 100.
B1 showed a He/Con_2aH of 139 control = 100.
B2 had a He/Con_2aH of 30.3 control = 100.
B3: the He/Con_2aH worked out at 63.5 control = 100.
Still for that read-out and setting: as for B4, the figure is 119 control = 100.
For the molecule B5, the He/Con_2aH was 31.3 control = 100.
Turning to B6, the He/Con_2aH amounted to 118 control = 100.
B7 had a He/Con_2aH of 4.6 control = 100.

The next test has as its target T2, FcγRIIb (human, UniProt P31994 43-217).
T2 construct: extracellular domain; also called FcgRIIb; 2b; not shown: His tag attached to the C terminus
T2 sequence (looked up): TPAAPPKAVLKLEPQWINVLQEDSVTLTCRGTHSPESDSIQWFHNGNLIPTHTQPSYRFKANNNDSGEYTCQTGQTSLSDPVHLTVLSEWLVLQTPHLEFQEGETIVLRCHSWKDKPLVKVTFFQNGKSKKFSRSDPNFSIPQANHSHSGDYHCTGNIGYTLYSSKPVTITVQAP
The test is described as above.
Regarding B1, the He/Con_2b was found to be 96.5 control = 100.
Consider B3, for which the He/Con_2b came out at 19 control = 100.
With B4, the He/Con_2b came out at 35.3 control = 100.
For the molecule B5, the He/Con_2b is 19.9 control = 100.
The same measure, in the same setting: the value for B6 was 39.3 control = 100; that for B7 was 3.2 control = 100.

The next test has as its target T3, FcγRIIb extracellular domain with C-terminal His tag (human, UniProt P31994 43-217).
T3 construct: extracellular domain; also called FcgRIIb; 2b; not shown: His tag at the C terminus
T3 sequence (looked up): T2 sequence (looked up)
Briefly: SPR Biacore, antibody captured, FcgR analyte; vs HeCon Ab GpH7-A5/GpH7-B3/GpL16-k0 = 100.
B8 gave a He/Con_2b of 48.2 control = 100.
In turn, B9 gave a He/Con_2b of 42.6 control = 100.
The same measure, in the same setting: the value for B10 was 76.9 control = 100; that for B11 was 56 control = 100; that for B12 was 54.9 control = 100.
In the case of B13, the He/Con_2b was found to be 46.8 control = 100.
In the case of B14, the He/Con_2b worked out at 57.4 control = 100.

The target in another test is T4, FcγRIIa R (FcγRIIa, allotype R: Arg at position 131) extracellular domain with C-terminal His tag (human, UniProt P12318 34-217).
T4 construct: extracellular domain; also called FcgRIIa R; 2aR; not shown: His tag at the C terminus
T4 sequence (looked up): T1 sequence (looked up) with H134R
Described as above.
As for B8, the He/Con_2aR amounted to 65.3 control = 100.
B9 showed a He/Con_2aR of 56.2 control = 100.
In turn, B10 showed a He/Con_2aR of 94.8 control = 100.
In the case of B11, the He/Con_2aR turned out to be 75 control = 100.
For the molecule B12, the He/Con_2aR was determined as 66.5 control = 100.
The molecule B13 displayed a He/Con_2aR of 60.7 control = 100.
B14 registered a He/Con_2aR of 75.1 control = 100.

The target of the next test is T4, FcγRIIa R (FcγRIIa, allotype R: Arg at …). Nature of the test: ratio He/Con_2aR : He/Con_2b (FcgRIIa R over FcgRIIb), SPR Biacore. The procedure:
The heterodimerized antibodies He Abs in which one of the H chains was introduced with an alteration were assayed for their binding activities to each activating FcγR and inhibitory FcγR according to the method described in Example 4. […] The activating FcγRs in FIGS. 26, 27, 28, and 29 are FcγRIa, FcγRIIa (R), FcγRIIa (H), and FcγRIIIa, respectively.
Analysis of interaction between objective antibody and the FcγR was carried out using Biacore T100 (GE Healthcare). HBS-EP+ (GE Healthcare) was used as the running buffer, and the measurement temperature was set to 25° C. Chips produced by immobilizing the antigen peptide by the amine coupling method to a Series S Sencor Chip CM5 (GE Healthcare), or alternatively, chips produced by allowing preliminarily biotinylated antigen peptides to interact with and immobilize onto a Series S Sensor Chip SA (certified) (GE Healthcare) were used. Antibodies of interest were captured onto an antigen peptide-immobilized chip, and allowed to interact to each FcγR diluted with running buffer. To regenerate and repeatedly use the chip, the antibodies captured on the chip were washed off by reacting 10 mM glycine-HCl, pH 1.5.
For B8, the “He_2aR/2b (IIaR/IIb)” value was 1.36.
For the molecule B9, the “He_2aR/2b (IIaR/IIb)” value turned out to be 1.32.
On to B10, for which the “He_2aR/2b (IIaR/IIb)” value turned out to be 1.23.
As for B11, the “He_2aR/2b (IIaR/IIb)” value stood at 1.34.
Turning to B12, the “He_2aR/2b (IIaR/IIb)” value came to 1.21.
Consider B13, for which the “He_2aR/2b (IIaR/IIb)” value was found to be 1.3.
Regarding B14, the “He_2aR/2b (IIaR/IIb)” value was found to be 1.31.
